Numbering of substitutions follows the chain as printed.
B1: humanized 13C6 variant h13C6a expressed in FUT8KO CHO cells (antibody)
heavy: EVQLVESGPALVKPTQTLTLTCTFSGFSLSTSGVGVGWIRQPPGKALEWLALIWWDDDKYYNPSLKSRLTISKDTSKNQVVLTMTNMDPVDTATYYCARRDPFGYDNAMGYWGQGTLVTVSSASTKGPSVFPLAPSSKSTSGGTAALGCLVKDYFPEPVTVSWNSGALTSGVHTFPAVLQSSGLYSLSSVVTVPSSSLGTQTYICNVNHKPSNTKVDKKVEPKSCDKTHTCPPCPAPELLGGPSVFLFPPKPKDTLMISRTPEVTCVVVDVSHEDPEVKFNWYVDGVEVHNAKTKPREEQYNSTYRVVSVLTVLHQDWLNGKEYKCKVSNKALPAPIEKTISKAKGQPREPQVYTLPPSREEMTKNQVSLTCLVKGFYPSDIAVEWESNGQPENNYKTTPPVLDSDGSFFLYSKLTVDKSWQQGNVFSCSVMHEALHNHYTQKSLSLSPGK
light: DIQMTQSPSSLSASVGDRVTITCKASQNVGTAVAWYQQKPGKAPKLLIYSASNRYTGVPSRFSGSGSGTDFTLTISSLQPEDFATYYCQQYSSYPLTFGQGTKVEIKRTVAAPSVFIFPPSDEQLKSGTASVVCLLNNFYPREAKVQWKVDNALQSGNSQESVTEQDSKDSTYSLSSTLTLSKADYEKHKVYACEVTHQGLSSPVTKSFNRGEC
notes: copies: 2 + 2
B2: humanized 13C6 variant h13C6a expressed in CHO cells (antibody)
heavy: B1 heavy
light: B1 light
notes: copies: 2 + 2
B3: humanized 13C6 variant h13C6i expressed in FUT8KO CHO cells (antibody)
heavy: B1 heavy
light: B1 light with A43S, Y87F
notes: copies: 2 + 2
B4: humanized 13C6 variant h13C6i expressed in CHO cells (antibody)
heavy: B1 heavy
light: B1 light with A43S, Y87F
notes: copies: 2 + 2

How the values were obtained:
[1] = biological target: recombinant FcγRIIIa (V158) (R&D Systems, cat#4325-FC-050) (UniProt P08637); assay: Biacore binding to recombinant FcγRIIIa (V158), low density
Sequence of recombinant FcγRIIIa (V158) (R&D Systems, cat#4325-FC-050) (UniProt P08637) (P08637 17-208 F176V limits assumed): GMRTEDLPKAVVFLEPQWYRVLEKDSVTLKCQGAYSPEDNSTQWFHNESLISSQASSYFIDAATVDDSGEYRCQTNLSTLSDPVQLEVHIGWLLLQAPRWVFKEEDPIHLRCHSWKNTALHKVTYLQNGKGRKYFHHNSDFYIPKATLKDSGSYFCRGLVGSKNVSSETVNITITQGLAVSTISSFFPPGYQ

[2] = biological target: recombinant FcγRIIIa (V158) (R&D Systems, cat#4325-FC-050) (UniProt P08637); assay: Biacore binding to recombinant FcγRIIIa (V158), high density
[3] = biological target: T1, recombinant FcγRIIIa (V158) (R&D Systems, cat#4325-FC-050) (UniProt P08637 17-208); assay: Biacore binding to recombinant FcγRIIIa
T1 sequence (P08637 17-208 F176V limits assumed): as above

[4] = biological target: T1, recombinant FcγRIIIa (V158) (R&D …); assay: Biacore binding to recombinant FcγRIIIa (V158), low density
[5] = biological target: T1, recombinant FcγRIIIa (V158) (R&D …); assay: Biacore binding to recombinant FcγRIIIa (V158), high density
[6] = biological target: T1, recombinant FcγRIIIa (V158) (R&D …); assay: Biacore, FcγRIIIa (V158) binding (summary table; equals the 9th table, row 11, column 4)

| Molecule | Kd [1] [nM] | Kd [2] [nM] | fold improvement of binding against CHO cell expressed material [3] [fold] | Kd [4] [nM] | Kd [5] [nM] | Kd [6] [nM] |
| --- | --- | --- | --- | --- | --- | --- |
| Herceptin CHO (antibody) | 82 | 67 |  |  |  |  |
| B1 |  |  | ~3 | 38 | 27 |  |
| B2 |  |  |  | 117 | 113 |  |
| B3 |  |  | ~3 | 36 | 24 | 24 |
| B4 |  |  |  | 122 | 111 |  |

— patent publication US20180362620A1 (Genentech, published 2018)
